According to the supplement of paper PMC6757056:
± gives the standard deviation of the averaged measurements.

B1: library; a variant is named by its letters at N, in order (parent)
chain: GCUGUCACCGAGAAACUGUGAAGUAUAUCUUAAACCUGGGCACUUAAAAGAUAUAUGGAGUUAGUAGUGCAACCUGCUCGGUCUGAUGAGUCCNNNNNNGGACGAAACAGC

Columns and labels:
cyclic di-GMP [1] = variants of: B1; assay: FACS-Seq fitted mean relative fluorescence mCherry/BFP without ligand (log10 relative fluorescence); HEK293T; ligand: cyclic di-GMP (c-di-GMP-II aptamer); higher = higher reporter protein expression; details: ligand present: no
Method in brief: (§1)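 Fluorescence values are fitted normal means of bin counts along the mCherry/BFP axis. HEK293T libraries lentivirally carrying the ribozyme switch in an mCherry reporter, with an EF1α-BFP marker, were enriched, exposed to ligand or not for 48 h, and sorted into 6 bins. Genomic DNA per bin was PCR-amplified, barcoded and run on MiSeq. Means of log10(mCherry/BFP) were scaled to five spiked-in control ribozymes.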

cyclic di-GMP [2] = variants of: B1; assay: normalized RNA/DNA level without ligand (relative to sTRSVctl = 100) (log10 (% of sTRSVctl)); HEK293T; ligand: cyclic di-GMP (c-di-GMP-II aptamer); higher = less ribozyme self-cleavage, higher mRNA level; details: reporter: mCherry (pCS4076), ligand present: no
Description: (§2)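 Hammerhead (sTRSV) ribozyme switch libraries with a ligand aptamer grafted on stem I and a randomized N4-6 loop II, cloned into the 3' UTR of mCherry and transiently transfected into HEK293T cells; RNA-Seq 72 h post transfection with ligand added 1 h before transfection; RNA read count / plasmid DNA read count normalized to the non-cleaving sTRSVctl (x100), log10; sequences with >100 DNA reads. FACS-Seq: lentiviral library sorted into 6 bins after 48 h ligand, log-normal fit mean of mCherry/BFP scaled to controls. Printed sequences are partial switch sequences.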

cyclic di-GMP [3] = variants of: B1; assay: FACS-Seq fitted mean relative fluorescence mCherry/BFP with ligand (log10 relative fluorescence); HEK293T; ligand: cyclic di-GMP (c-di-GMP-II aptamer); ligand concentration (+) FACS-Seq: 1 mM; higher = higher reporter protein expression; details: ligand present: yes
Method in brief: as §1

cyclic di-GMP [4] = variants of: B1; assay: normalized RNA/DNA level with ligand (relative to sTRSVctl = 100) (log10 (% of sTRSVctl)); HEK293T; ligand: cyclic di-GMP (c-di-GMP-II aptamer); ligand concentration (+) RNA-Seq: 1 mM; higher = less ribozyme self-cleavage, higher mRNA level; details: reporter: mCherry (pCS4076), ligand present: yes
Description: as §2

Variant | FACS-Seq fitted mean (log10) (cyclic di-GMP [1]) | normalized RNA/DNA level without ligand (log10) (cyclic di-GMP [2]) | FACS-Seq fitted mean (log10) (cyclic di-GMP [3]) | normalized RNA/DNA level with ligand (log10) (cyclic di-GMP [4])
GCGAUC | -0.51 ± 0.012 | 1.16 ± 0.039 | -0.206 ± 0.014 | 1.34 ± 0.15
AGAGAA | -0.335 ± 0.073 | 1.33 ± 0.12 | -0.0362 ± 0.068 | 1.54 ± 0.1
AGUAGG | -1.02 ± 0.098 | 1.63 ± 0.097 | -0.997 ± 0.068 | 1.75 ± 0.049
UCAGUG | -0.446 ± 0.02 | 1.669 ± 0.0062 | -0.142 ± 0.12 | 1.83 ± 0.15
UUCACU | -0.67 ± 0.15 | 1.73 ± 0.018 | -0.577 ± 0.18 | 1.85 ± 0.1
UUCCGU | 0.0201 ± 0.13 | 1.7 ± 0.02 | 0.296 ± 0.053 | 1.83 ± 0.08
AGCUUG | -0.0154 ± 0.14 | 1.59 ± 0.041 | 0.223 ± 0.0032 | 1.81 ± 0.14
AGAAAG | -0.223 ± 0.077 | 1.5 ± 0.058 | 0.0417 ± 0.031 | 1.69 ± 0.1
UAGUCC | 0.148 ± 0.14 | 1.72 ± 0.1 | 0.203 ± 0.041 | 1.85 ± 0.086
GUGAGA | -0.476 ± 0.052 | 1.41 ± 0.058 | -0.164 ± 0.051 | 1.6 ± 0.089
CCGUAA | -0.4729 ± 0.0036 | 1.35 ± 0.17 | -0.242 ± 0.019 | 1.57 ± 0.082
GCACAU | -0.28 ± 0.043 | 1.47 ± 0.055 | -0.00874 ± 0.0028 | 1.69 ± 0.11
AGAAUG | -0.367 ± 0.045 | 1.48 ± 0.12 | -0.126 ± 0.14 | 1.68 ± 0.043
CAAAAA | -0.703 ± 0.047 | 1.21 ± 0.087 | -0.444 ± 0.071 | 1.46 ± 0.079
CCAAAU | -0.277 ± 0.053 | 1.52 ± 0.099 | -0.0208 ± 0.13 | 1.71 ± 0.074
UUUAGU | 0.00244 ± 0.12 | 1.732 ± 0.013 | 0.273 ± 0.034 | 1.87 ± 0.088
AACGCC | -0.235 ± 0.048 | 1.75 ± 0.022 | 0.192 ± 0.046 | 1.9 ± 0.15
CCAGUA | -0.229 ± 0.044 | 1.5 ± 0.092 | 0.134 ± 0.047 | 1.73 ± 0.12
AUAGUU | -0.615 ± 0.079 | 1.539 ± 0.0099 | -0.438 ± 0.02 | 1.73 ± 0.089
UUCAAC | -0.163 ± 0.071 | 1.695 ± 0.004 | 0.153 ± 0.024 | 1.82 ± 0.12
UCACUU | -0.404 ± 0.091 | 1.611 ± 0.0095 | -0.0521 ± 0.15 | 1.77 ± 0.14
CAUAGU | -0.641 ± 0.058 | 1.72 ± 0.025 | -0.575 ± 0.046 | 1.85 ± 0.066
GAACCC | 0.196 ± 0.15 | 1.82 ± 0.026 | 0.39 ± 0.019 | 1.91 ± 0.12
GUGAUC | -0.464 ± 0.047 | 1.15 ± 0.17 | -0.114 ± 0.0038 | 1.27 ± 0.017

Variant | FACS-Seq fitted mean (log10) (cyclic di-GMP [1]) | normalized RNA/DNA level without ligand (log10) (cyclic di-GMP [2]) | FACS-Seq fitted mean (log10) (cyclic di-GMP [3]) | normalized RNA/DNA level with ligand (log10) (cyclic di-GMP [4])
GCAAGC | -0.589 ± 0.17 | 1.63 ± 0.026 | -0.514 ± 0.15 | 1.81 ± 0.14
CAGCUG | 0.189 ± 0.018 | 1.767 ± 0.0057 | 0.403 ± 0.038 | 1.84 ± 0.12
CCACAU | 0.0115 ± 0.077 | 1.54 ± 0.052 | 0.346 ± 0.031 | 1.76 ± 0.11
CGGUUA | -0.67 ± 0.04 | 1.27 ± 0.12 | -0.411 ± 0.028 | 1.43 ± 0.091
GAAUAA | -0.287 ± 0.05 | 1.44 ± 0.067 | -0.0182 ± 0.045 | 1.68 ± 0.15
GCUGUA | -0.0986 ± 0.038 | 1.6 ± 0.04 | 0.213 ± 0.017 | 1.74 ± 0.12
UACGUG | -0.864 ± 0.019 | 1.69 ± 0.031 | -0.635 ± 0.083 | 1.85 ± 0.12
ACCAGU | -0.368 ± 0.064 | 1.602 ± 0.0077 | 0.00485 ± 0.036 | 1.8 ± 0.068
UCUAAA | -0.692 ± 0.041 | 1.495 ± 0.0055 | -0.441 ± 0.055 | 1.74 ± 0.15
CACAGA | -0.384 ± 0.025 | 1.53 ± 0.058 | -0.0508 ± 0.039 | 1.74 ± 0.1
UUGUAU | 0.0117 ± 0.057 | 1.66 ± 0.051 | 0.163 ± 0.013 | 1.82 ± 0.16
GUACGA | -0.395 ± 0.055 | 1.43 ± 0.046 | -0.0985 ± 0.03 | 1.64 ± 0.077
GUACGG | 0.00232 ± 0.14 | 1.62 ± 0.053 | 0.333 ± 0.011 | 1.77 ± 0.059
ACGAAA | -0.618 ± 0.032 | 1.35 ± 0.1 | -0.313 ± 0.013 | 1.52 ± 0.11
ACGGAA | -0.62 ± 0.042 | 1.31 ± 0.097 | -0.325 ± 0.031 | 1.47 ± 0.13
ACGGAG | -0.541 ± 0.036 | 1.46 ± 0.12 | -0.151 ± 0.062 | 1.61 ± 0.15
GAAGGA | -0.325 ± 0.067 | 1.44 ± 0.093 | 0.0781 ± 0.006 | 1.59 ± 0.067
AAAAUG | -0.0352 ± 0.079 | 1.5 ± 0.05 | 0.319 ± 0.046 | 1.7 ± 0.12
ACCGAA | -0.328 ± 0.091 | 1.44 ± 0.08 | -0.063 ± 0.13 | 1.62 ± 0.12
ACAAAU | -0.483 ± 0.17 | 1.37 ± 0.13 | -0.291 ± 0.042 | 1.57 ± 0.08
UCAAUG | -0.476 ± 0.064 | 1.51 ± 0.12 | -0.188 ± 0.01 | 1.78 ± 0.027
GCCCCU | 0.163 ± 0.17 | 1.761 ± 0.0048 | 0.336 ± 0.019 | 1.89 ± 0.077
CCCGGU | -0.55 ± 0.093 | 1.724 ± 0.003 | -0.114 ± 0.093 | 1.87 ± 0.11
AUGUGU | -0.484 ± 0.16 | 1.53 ± 0.043 | -0.314 ± 0.021 | 1.77 ± 0.11

Variant | FACS-Seq fitted mean (log10) (cyclic di-GMP [1]) | normalized RNA/DNA level without ligand (log10) (cyclic di-GMP [2]) | FACS-Seq fitted mean (log10) (cyclic di-GMP [3]) | normalized RNA/DNA level with ligand (log10) (cyclic di-GMP [4])
CUACGA | -0.199 ± 0.061 | 1.62 ± 0.038 | 0.0797 ± 0.066 | 1.79 ± 0.086
UGUUGA | -0.163 ± 0.015 | 1.6 ± 0.041 | -0.0478 ± 0.051 | 1.78 ± 0.12
UCAUGU | -0.749 ± 0.0092 | 1.63 ± 0.073 | -0.517 ± 0.028 | 1.82 ± 0.077
UAGAAA | -0.272 ± 0.026 | 1.58 ± 0.037 | -0.0653 ± 0.024 | 1.75 ± 0.18
CCUGCC | -0.367 ± 0.12 | 1.79 ± 0.018 | -0.0275 ± 0.059 | 1.89 ± 0.052
GCCCUA | -0.142 ± 0.071 | 1.688 ± 0.013 | 0.0262 ± 0.042 | 1.85 ± 0.1
UCUUGA | -0.685 ± 0.031 | 1.702 ± 0.0063 | -0.542 ± 0.027 | 1.84 ± 0.14
CCAGAA | -0.598 ± 0.013 | 1.34 ± 0.14 | -0.277 ± 0.015 | 1.58 ± 0.1
AAAGGU | -0.701 ± 0.017 | 1.54 ± 0.054 | -0.44 ± 0.065 | 1.71 ± 0.1
CAGGAA | -0.629 ± 0.038 | 1.4 ± 0.099 | -0.392 ± 0.12 | 1.51 ± 0.051
AAGGGG | -0.499 ± 0.044 | 1.47 ± 0.087 | -0.103 ± 0.12 | 1.63 ± 0.1
CGCCAU | -0.339 ± 0.042 | 1.5 ± 0.12 | -0.0661 ± 0.036 | 1.69 ± 0.078
CUUUCU | -0.275 ± 0.072 | 1.65 ± 0.072 | 0.0435 ± 0.082 | 1.77 ± 0.095
CUUUCA | -0.391 ± 0.0064 | 1.42 ± 0.11 | -0.114 ± 0.028 | 1.66 ± 0.051
CACCUA | -0.26 ± 0.028 | 1.36 ± 0.15 | 0.0161 ± 0.13 | 1.58 ± 0.12
GUCAAU | -0.201 ± 0.12 | 1.63 ± 0.034 | 0.152 ± 0.028 | 1.78 ± 0.087
AGGCAG | -0.6414 ± 0.0033 | 1.758 ± 0.0064 | -0.399 ± 0.084 | 1.83 ± 0.097
GCUAGA | -0.35 ± 0.031 | 1.49 ± 0.043 | -0.116 ± 0.03 | 1.67 ± 0.099
AGCAGC | -0.317 ± 0.18 | 1.72 ± 0.048 | -0.109 ± 0.057 | 1.86 ± 0.069
AGACAA | -0.193 ± 0.061 | 1.47 ± 0.057 | 0.171 ± 0.019 | 1.65 ± 0.1
AUUAAA | -0.425 ± 0.11 | 1.53 ± 0.048 | -0.0171 ± 0.053 | 1.71 ± 0.12
AAACUU | -0.199 ± 0.0094 | 1.646 ± 0.0047 | 0.118 ± 0.0021 | 1.82 ± 0.091
AGACGA | -0.409 ± 0.019 | 1.54 ± 0.063 | -0.212 ± 0.013 | 1.73 ± 0.12
